The text below walks through data of patent US20060148030A1, “Nuclear receptor err y 3” (FUJISAWA PHARMACEUTICAL CO., LTD, priority 2002, published 2006).

For the assay, the target named is T1, VDR (Rattus norvegicus, UniProt P13053).
T1 construct: expressed in transfected cells; host or cells: CV-1 (African green monkey kidney)
T1 sequence (P13053 1-423): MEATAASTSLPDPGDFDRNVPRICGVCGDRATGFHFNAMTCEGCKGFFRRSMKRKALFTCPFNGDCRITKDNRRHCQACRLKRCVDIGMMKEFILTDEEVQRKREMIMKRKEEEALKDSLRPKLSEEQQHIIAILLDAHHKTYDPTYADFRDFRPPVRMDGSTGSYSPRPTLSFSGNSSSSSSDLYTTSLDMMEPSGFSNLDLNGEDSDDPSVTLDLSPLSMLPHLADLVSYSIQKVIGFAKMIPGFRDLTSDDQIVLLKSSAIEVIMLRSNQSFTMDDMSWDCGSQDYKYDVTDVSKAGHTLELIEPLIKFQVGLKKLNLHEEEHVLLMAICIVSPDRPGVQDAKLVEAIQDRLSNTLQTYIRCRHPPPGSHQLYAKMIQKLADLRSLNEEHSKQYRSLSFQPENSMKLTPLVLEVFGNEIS
T1 sequence (P19793 1-462 partner): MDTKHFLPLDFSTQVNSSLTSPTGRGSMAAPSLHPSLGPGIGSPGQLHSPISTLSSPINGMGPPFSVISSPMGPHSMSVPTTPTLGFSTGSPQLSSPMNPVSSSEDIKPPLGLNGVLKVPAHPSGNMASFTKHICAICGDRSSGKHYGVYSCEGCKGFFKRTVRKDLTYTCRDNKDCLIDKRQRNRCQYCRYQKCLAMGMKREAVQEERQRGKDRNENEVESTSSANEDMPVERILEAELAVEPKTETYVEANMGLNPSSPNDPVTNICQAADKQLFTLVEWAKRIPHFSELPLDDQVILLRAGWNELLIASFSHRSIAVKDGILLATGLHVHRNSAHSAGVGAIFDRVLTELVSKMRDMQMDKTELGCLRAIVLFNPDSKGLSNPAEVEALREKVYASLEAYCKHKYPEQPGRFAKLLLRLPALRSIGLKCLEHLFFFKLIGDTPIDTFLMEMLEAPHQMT
The assay can be described thus: Reporter gene assay, ERRγ3 coexisted with VDR, pGVP2-VDRE in CV-1 cells. The format is cell-based. The note with it: 5×10^−8 M calcitriol, FIG. 23. The method, then:
Transfection was performed as follows: CV-1 cells were resuspended in DMEM supplemented with 10% fetal bovine serum, 2000 U/l of penicillin G, and 100 mg/l of streptomycin to a concentration of 2×10^5 cells/2.5 ml. This was then seeded to a 6-well plate at 2.5 ml per well, and incubated for 18-24 hours in a CO2 incubator at 37° C. and 5% CO2. 1 μg of each of the expression plasmids for the transcription factors, the luciferase reporter plasmid, and another luciferase reporter plasmid used for normalization of the measured values (pRL-TK), were dissolved in Opti-MEM (Gibco BRL), to a total of 150 μl. 7 μl of the transfection reagent LipofectAMINE 2000 (Gibco BRL) was diluted in 143 μl of Opti-MEM, and this was added to the mixture drop by drop while stirring. The mixture was incubated for 20 minutes. […] Luciferase activity was measured using the Dual-Luciferase™ Reporter Assay System (Promega). […] The protocol for measurement was as follows: 50 μl of Luciferase Assay Reagent II was added to each well, stirred for 0.3 seconds, and measured for one second. 50 μl of Stop&Glo™ Reagent was then added, stirred for 0.3 seconds, and measured for one second. The measured values for firefly luciferase activity were corrected by dividing by the value for the Renilla luciferase activity, the internal control. Average values and standard errors were calculated from triplicate samples. […]

B1: ERRγ3: novel ERRγ isoform, nuclear receptor protein of 396 amino acids (SEQ ID NO: 2) lacking part of the DNA binding domain (protein, listed as Homo sapiens)
chain: MSNKDRHIDSSCSSFIKTEPSSPASLTDSVNHHSPGGSSDASGSYSSTMNGHQNGLDSPPLYPSAPILGGSGPVRKLYDDCSSTIVEDPQTKCEYMLNSMPKRLCLVCGDIASGYHYGVASCEACKAFFKRTIQGVRLDRVRGGRQKYKRRIDAENSPYLNPQLAQPAKKPYNKIVSHLLVAEPEKIYAMPDPTVPDSDIKALTTLCDLADRELVVIIGWAKHIPGFSTLSLADQMSLLQSAWMEILILGVVYRSLSFEDELVYADDYIMDEDQSKLAGLLDLNNAILQLVKKYKSMKLEKEEFVTLKAIALANSDSMHIEDVEAVQKLQDVLHEALQDYEAGQHMEDPRRAGKMLMTLPLLRQTSTKAVQHFYNIKLEGKVPMHKLFLEMLEAKV
As to B1, the “modifying effect on the transcriptional stimulation activity of VDR” value is reported as “did not show a significant modifying effect”.
